# Test results taken from the supplement of paper PMC10567573.
# B1: NP_006221.1 (parent)
# chain: CQPISFSGFGAEDDDLGGLGLGP
# Variants of: B1
# Assay: protein stability index of a GFP-peptide fusion (GPS, HEK-293T) (PSI 1-6); higher = more stable
# Details: c terminus: native
# 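Further: lentivirally expressed fusion library, cells FACS-sorted into six equal-sized GFP/DsRed ratio bins, PSI computed from sequencing read fractions per bin weighted by bin number.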
row,Variant,protein stability index
1,CQPKSFSGFGAEDDDLGGLGLGP,2.05
2,CQPSSFSGFGAEDDDLGGLGLGP,2.31
3,CQPGSFSGFGAEDDDLGGLGLGP,2.29
4,CQPDSFSGFGAEDDDLGGLGLGP,2.48
5,CQPASFSGFGAEDDDLGGLGLGP,2.17
6,CQPVSFSGFGAEDDDLGGLGLGP,2.54
7,CQPFSFSGFGAEDDDLGGLGLGP,2.12
8,CQPRSFSGFGAEDDDLGGLGLGP,2.08
9,CQPYSFSGFGAEDDDLGGLGLGP,2.09
10,CQPNSFSGFGAEDDDLGGLGLGP,2.45
11,CQPESFSGFGAEDDDLGGLGLGP,2.41
12,CQPQSFSGFGAEDDDLGGLGLGP,2.15
13,CQPWSFSGFGAEDDDLGGLGLGP,2.25
14,CQPHSFSGFGAEDDDLGGLGLGP,2.25
15,CQPPSFSGFGAEDDDLGGLGLGP,2.2
16,CQPCSFSGFGAEDDDLGGLGLGP,2.43
17,CQPTSFSGFGAEDDDLGGLGLGP,2.47
18,CQPMSFSGFGAEDDDLGGLGLGP,2.21
19,CQPLSFSGFGAEDDDLGGLGLGP,2.11
20,CQWISFSGFGAEDDDLGGLGLGP,1.94
21,CQIISFSGFGAEDDDLGGLGLGP,2.29
22,CQLISFSGFGAEDDDLGGLGLGP,2.1
23,CQVISFSGFGAEDDDLGGLGLGP,2.14
24,CQYISFSGFGAEDDDLGGLGLGP,2.01
25,CQFISFSGFGAEDDDLGGLGLGP,1.94

row,Variant,protein stability index
1,CQMISFSGFGAEDDDLGGLGLGP,2.15
2,CQQISFSGFGAEDDDLGGLGLGP,2.42
3,CQDISFSGFGAEDDDLGGLGLGP,2.2
4,CQAISFSGFGAEDDDLGGLGLGP,2.19
5,CQGISFSGFGAEDDDLGGLGLGP,2.3
6,CQNISFSGFGAEDDDLGGLGLGP,2.2
7,CQTISFSGFGAEDDDLGGLGLGP,2.09
8,CQSISFSGFGAEDDDLGGLGLGP,2.37
9,CQCISFSGFGAEDDDLGGLGLGP,2.12
10,CQEISFSGFGAEDDDLGGLGLGP,2.46
11,CQHISFSGFGAEDDDLGGLGLGP,2.06
12,CQKISFSGFGAEDDDLGGLGLGP,2.05
13,CQRISFSGFGAEDDDLGGLGLGP,2.06
14,CRPISFSGFGAEDDDLGGLGLGP,2.17
15,CYPISFSGFGAEDDDLGGLGLGP,2.09
16,CEPISFSGFGAEDDDLGGLGLGP,2.43
17,CTPISFSGFGAEDDDLGGLGLGP,2.16
18,CVPISFSGFGAEDDDLGGLGLGP,1.98
19,CMPISFSGFGAEDDDLGGLGLGP,2.16
20,CHPISFSGFGAEDDDLGGLGLGP,2.26
21,CWPISFSGFGAEDDDLGGLGLGP,2.13
22,CGPISFSGFGAEDDDLGGLGLGP,2.1
23,CSPISFSGFGAEDDDLGGLGLGP,2.64
24,CCPISFSGFGAEDDDLGGLGLGP,2.14
25,CNPISFSGFGAEDDDLGGLGLGP,2.31

row,Variant,protein stability index
1,CLPISFSGFGAEDDDLGGLGLGP,2.51
2,CFPISFSGFGAEDDDLGGLGLGP,1.99
3,CDPISFSGFGAEDDDLGGLGLGP,2.51
4,CPPISFSGFGAEDDDLGGLGLGP,2.19
5,CAPISFSGFGAEDDDLGGLGLGP,1.98
6,CIPISFSGFGAEDDDLGGLGLGP,2.16
7,CKPISFSGFGAEDDDLGGLGLGP,2.22
8,CQPISFSEFGAEDDDLGGLGLGP,2.03
9,CQPISFSHFGAEDDDLGGLGLGP,1.98
10,CQPISFSDFGAEDDDLGGLGLGP,2.05
11,CQPISFSFFGAEDDDLGGLGLGP,2.39
12,CQPISFSCFGAEDDDLGGLGLGP,1.96
13,CQPISYSGFGAEDDDLGGLGLGP,2.52
14,CQPISWSGFGAEDDDLGGLGLGP,2.22
15,CQPISPSGFGAEDDDLGGLGLGP,4.41
16,CQPISDSGFGAEDDDLGGLGLGP,4.57
17,CQPISLSGFGAEDDDLGGLGLGP,3.5
18,CQPISHSGFGAEDDDLGGLGLGP,3.48
19,CQPISMSGFGAEDDDLGGLGLGP,3.53
20,CQPISNSGFGAEDDDLGGLGLGP,4.41
21,CQPISKSGFGAEDDDLGGLGLGP,4.18
22,CQPISGSGFGAEDDDLGGLGLGP,4.16
23,CQPISTSGFGAEDDDLGGLGLGP,3.93
24,CQPISSSGFGAEDDDLGGLGLGP,3.93
25,CQPISCSGFGAEDDDLGGLGLGP,3.41

row,Variant,protein stability index
1,CQPISISGFGAEDDDLGGLGLGP,3.63
2,CQPISASGFGAEDDDLGGLGLGP,3.88
3,CQPISRSGFGAEDDDLGGLGLGP,3.86
4,CQPISVSGFGAEDDDLGGLGLGP,3.43
5,CQPISESGFGAEDDDLGGLGLGP,4.72
6,CQPISQSGFGAEDDDLGGLGLGP,4.21
7,CQPISFYGFGAEDDDLGGLGLGP,2.6
8,CQPISFKGFGAEDDDLGGLGLGP,2.77
9,CQPISFWGFGAEDDDLGGLGLGP,2.42
10,CQPISFFGFGAEDDDLGGLGLGP,2.48
11,CQPISFHGFGAEDDDLGGLGLGP,3.06
12,CQPISFRGFGAEDDDLGGLGLGP,2.56
13,CQPISFPGFGAEDDDLGGLGLGP,4.14
14,CQPISFQGFGAEDDDLGGLGLGP,2.48
15,CQPISFAGFGAEDDDLGGLGLGP,1.89
16,CQPISFGGFGAEDDDLGGLGLGP,2.87
17,CQPISFMGFGAEDDDLGGLGLGP,2.47
18,CQPISFCGFGAEDDDLGGLGLGP,2.11
19,CQPISFTGFGAEDDDLGGLGLGP,2.19
20,CQPISFEGFGAEDDDLGGLGLGP,2.72
21,CQPISFLGFGAEDDDLGGLGLGP,2.43
22,CQPISFNGFGAEDDDLGGLGLGP,3.37
